The target in assay [1] is T1, whole human PRG-3 with a C-terminal V5 tag, inducibly expressed on PRG-3/293T-Rex cells (human, UniProt Q8TBJ4 1-325).
T1 construct: Membrane protein with 6 transmembrane regions; also called PRG-3/293 cells; PRG3+/293 cells; not shown: V5 tag inserted at the C-terminus
T1 sequence: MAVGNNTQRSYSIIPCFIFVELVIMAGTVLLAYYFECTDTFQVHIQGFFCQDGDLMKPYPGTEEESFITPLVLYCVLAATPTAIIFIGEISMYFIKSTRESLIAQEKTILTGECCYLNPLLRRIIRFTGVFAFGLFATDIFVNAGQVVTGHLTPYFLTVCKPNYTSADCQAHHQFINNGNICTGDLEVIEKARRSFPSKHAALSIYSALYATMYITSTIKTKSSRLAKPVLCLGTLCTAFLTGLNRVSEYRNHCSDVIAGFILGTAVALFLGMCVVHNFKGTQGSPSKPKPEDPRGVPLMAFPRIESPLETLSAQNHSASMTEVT
Description: flow cytometry, hybridoma supernatant on PRG-3-induced against non-induced 293 cells. How it is done:
The cell line expressing human PRG-3 suspended in FACS buffer (2% FBS/PBS) was diluted to 1×10⁶ cells/mL using FACS buffer, and aliquoted at 50 μL/well into a Falcon 353910 round-bottom 96-well plate. Hybridoma culture supernatant diluted to a suitable concentration was added to the wells containing the cells and reacted for 60 min on ice. Next, the cells were rinsed once with FACS buffer. Goat F(ab′)₂ fragment anti-mouse IgG (H+L)-FITC (Beckman Coulter) was added to the wells containing the cells as a secondary antibody, and reacted for 30 min on ice. The supernatant was removed by centrifugation after the reaction, and the cells suspended in 100 μL of FACS buffer were subjected to flow cytometry. A FACS Calibur (Becton Dickinson) was used for the flow cytometry. A gate for the viable cell population was established with a forward scatter-side scatter dot blot, an FL1 histogram was made of the cells contained in the population, and binding activity thereof was evaluated.

The target of assay [2] is T2, human PRG-3 (without tag) on cells (human, UniProt Q8TBJ4 1-325).
T2 construct: also called PRG-3 protein; PRG-3/BaF3
T2 sequence: T1 sequence
Put plainly: flow cytometry, mixture of the two antibodies on Ba/F3 cells transfected with pMCN-PRG-3. How it is done: A Ba/F3 cell transformant line was established by gene transfer of the pMCN-PRG-3 expression vector constructed in example 2 into Ba/F3 cells, which is a murine pro B cell line, by electroporation under conditions of 0.33 kV and 950 μF. The Ba/F3 cells are IL-3 dependent cells, and they were cultured in RPMI-1640/10% FBS/penicillin-streptomycin containing 1 ng/mL IL-3. The cells that underwent gene transfer were selected by RPMI-1640/10% FBS/penicillin-streptomycin containing IL-3 and 500 μg/mL Geneticin® (Invitrogen). Cells expressing PRG-3 from the Geneticin®-resistant lines were selected by flow cytometry. […] Lines O-A5, O-D3, and O-F5 were established as Ba/F3 cell lines expressing PRG-3 (FIG. 6). Additionally, line O-F5 was cloned by the limiting dilution method and the OF5-G8 line with a high level of expression was also obtained.
In general terms: A flow cytometer gives signals particle by particle.

Residue numbers refer to the chain shown, from its start.

This is an account of results in patent US20100111851A1 (UNIVERSITY OF TOKYO, published 2010).

B1: anti-PRG-3 monoclonal antibody 4F1 (antibody, mouse IgG2b, kappa, V domains shown)
VH: QVQLQQPGAELVKPGASVKLSCKASGYTFTSYWMNWVKQRPGRGLEWIGKIHPSDSETHYNQKFKSKATLTVDKSSSTAYIQLNSLTSEDSAVYYCTRGYNNYLDYWGQGTTLTVSS
VL: DIVLTQSPASLAVSLGQSVTISCRASESVEYYGTSLMQWYQQKPGQPPKLLIYGASNVESGVPARFSGSGSWTDFSLNIHPVEEDDIAIYFCQQSRKVPSTFGGGTKLEIKR
notes: also called MR4F1
Regarding B1, the binding result in assay [1] and in assay [2] was “binds” throughout.

B2: anti-PRG-3 monoclonal antibody 4F12 (antibody, mouse IgG2a, kappa, V domains shown)
VH: B1 VH with N84S, T97A, N101S
VL: B1 VL with S18R, W72G, I89M
notes: Tested as hybridoma culture supernatant and as protein G purified antibody; also called MR4F12
Turning to B2, the binding result in assay [1] and in assay [2] was “binds” throughout.
